Assay in all cases: flow cytometry on cells
For orientation: Flow cytometry measures light scatter and fluorescence of single cells or particles in a stream.

The target of assay [1] is PD-L1 expressed on Flp-In CHO cells (Homo sapiens (), UniProt Q9NZQ7).
In assay [2] the target is OX40 expressed on Flp-In CHO cells (Homo sapiens (), UniProt P43489).
For assay [3], the target named is PD-1 expressed on Flp-In CHO cells (Homo sapiens (), UniProt Q15116).
Chain of PD-1 expressed on Flp-In CHO cells (Q15116 25-288): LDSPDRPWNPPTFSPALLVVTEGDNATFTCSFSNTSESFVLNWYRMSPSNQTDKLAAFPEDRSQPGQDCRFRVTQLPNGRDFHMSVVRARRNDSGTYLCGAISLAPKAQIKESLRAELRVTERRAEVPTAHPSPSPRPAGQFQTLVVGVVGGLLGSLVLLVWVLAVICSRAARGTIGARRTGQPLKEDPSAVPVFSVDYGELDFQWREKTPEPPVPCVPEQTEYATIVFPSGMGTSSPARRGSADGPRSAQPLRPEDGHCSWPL

Chain of OX40 expressed on Flp-In CHO cells (P43489 29-277): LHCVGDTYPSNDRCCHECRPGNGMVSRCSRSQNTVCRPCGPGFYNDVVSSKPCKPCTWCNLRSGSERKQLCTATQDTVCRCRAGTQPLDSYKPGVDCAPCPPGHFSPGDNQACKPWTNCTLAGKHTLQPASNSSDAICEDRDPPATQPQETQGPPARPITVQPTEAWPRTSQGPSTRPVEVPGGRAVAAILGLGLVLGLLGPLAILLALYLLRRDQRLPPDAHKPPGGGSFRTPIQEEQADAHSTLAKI
Chain of PD-L1 expressed on Flp-In CHO cells (Q9NZQ7 19-290): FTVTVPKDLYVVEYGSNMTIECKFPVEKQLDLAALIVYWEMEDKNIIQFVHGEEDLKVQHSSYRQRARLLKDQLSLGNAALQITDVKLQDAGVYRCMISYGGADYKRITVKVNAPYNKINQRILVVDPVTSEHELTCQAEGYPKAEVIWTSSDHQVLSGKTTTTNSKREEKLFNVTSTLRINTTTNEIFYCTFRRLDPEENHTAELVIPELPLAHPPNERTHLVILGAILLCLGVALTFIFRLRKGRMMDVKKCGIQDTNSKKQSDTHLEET

B1: tPDL1.3 full-length human IgG1 (antibody, V domains shown)
VH: QVQLVQSGAEVKKPGASVKVSCKASGFTFTSYDINWVRQATGQGLEWMGWMHPNSGITGYAQKFQGRVTMTRNTSISTAYMELSSLSSEDTAVYFCARYYYVSGSYDYWGQGTLVTVSS
VL: EIVMTQSPATLSLSPGERATLSCWASQSVSSSYLSWYQQKPGQAPRLLIYGASTRATGIPARFSGSGSGTDFTLTISSLQPEDFAVYYCQQDYNLPYTFGQGTKLEIK
For B1, in assay [1], the response was half-maximal at 0.3 nM (EC50).

B2: tOX40.24 full-length human IgG1 (antibody, V domains shown)
VH: QVQLVESGGGVVQPGRSLRLSCAASGFTFRSYGMHWVRQAPGKGLEWLAIIWYDGSNKYYADSVKGRLTISRDNSKNTLYLQMNSLRAEDTAVYYCARDTQVAEAGFPHHHYYGMDVWGQGTTVTVSS
VL: not shown
Turning to B2, the EC50 in assay [2] turned out to be 0.7 nM.

B3: tPD1.16 full-length human IgG1 (antibody, V domains shown)
VH: QVQLVESGGGVVQPGRSLRLSCAASGFTFSNYGMHWVRQAPGKGLEWVAVIWYDGTNKFYADSVKGRFTISRDNSKNTLYLQMNSLRAEDTAVYYCATNSDDYWGQGTLVTVSS
VL: AIQMTQSPSSLSASVGDRVTITCRASQDIRNDLGWYQQKPGKAPKLLIYAASLLRSGVPSRFSGSGSGTDFTLTISSLQPEDFATYYCLQDNNYPRTFGQGTKVEIK
In turn, B3 came in with an EC50 in assay [3] of 2.8 nM.

In general, EC50 refers to the concentration giving half of the maximal effect. Low values mean higher potency in that assay, high ones lower potency in that assay.

Source of the values: paper PMC7531523 (mAbs, 2020).
